Experimental data from paper PMC9170038, “Crowdsourced RNA design discovers diverse, reversible, efficient, self-contained molecular switches”.

Biological target: MS2 coat protein, dlFG mutant (Escherichia phage MS2, UniProt P03612, del68-81insG)
Assay: 4 mM Mg2+; no ligand; RNA-MaP array; 100 mM Tris-HCl pH 7.5, 80 mM KCl, 4 mM MgCl2, 0.1 mg/mL BSA, 1 mM DTT, 0.01 mg/mL yeast tRNA, 0.01% Tween-20; protein 1.5 nM to 3 uM; 37 C (Table S3)
Details: chain copies: 2; label: tethered by stalled RNA polymerase

B1: Eterna 1281 (Exclusion - Tryptophan B) (ssRNA)
RNA: GAGAAUCUCACGGCCGCCACUCACCUGUUAAUUGACAUCGACGGCCUCGACCAGUGAUGUUGUGUGAGGACCGGGUGUCUCGUGU
  Kd: > 3000 nM

B2: Eterna 7684651 (Exclusion - Tryptophan A) (ssRNA)
RNA: AACUUAAUUUAUAAGCAGUGAUGUUGCUCACGAGGACCGGUACGGCCGCCACUCGAUCGGACUUAGGUCUUCAAUUAUUUCAUUA
  Kd: > 3000 nM

B3: Eterna 7727526 (Same State - Tryptophan A) (ssRNA)
RNA: GACGGGCAGUGAUGUUGCCGGUCUCUUGGACGAGGACCGGUACGGCCGCCACUCGAUCUGAUGCGAGAAUUGUAUCUUUUAAUAA
  Kd: > 3000 nM

B4: Eterna 7769703 (Exclusion - Tryptophan A) (ssRNA)
RNA: AAACAUCACUGGGAGUGAUGUUCUCAGUGACGAGGACCGGUACGGCCGCCACUCGCGAGAGAACUAGUCUAGACUUGACUGCAUU
  Kd: > 3000 nM

B5: Eterna 1109 (Exclusion - Theophylline A) (ssRNA)
RNA: UCGGCGGAGUGAUGUUCCUAUGUCCAAGAUACCAGUCUAUGAACGGACCCUUGGCAGCUUCCAUUAGGUUACUAUUUAGACUCAU
  Kd: > 3000 nM

B6: Eterna 7754737 (Exclusion - Tryptophan A) (ssRNA)
RNA: CGCUUUGCGUCCGGUAGUGAUGUUACCAAGCGAGGACCGGUACGGCCGCCACUCGAGUGACAGACGUACUGGUAUCACCCGCUUU
  Kd: > 3000 nM

B7: Eterna 7691660 (Exclusion - Tryptophan B) (ssRNA)
RNA: AGAUUCGACACGGCCGCCACUUGUGGUGGAUUAUCCUAUGUAAGACAUGAGUGAUGUUCAUGUACAAGGACCGGGUGUUGAGUCU
  Kd: > 3000 nM

B8: Eterna 7678688 (Same State - Tryptophan A) (ssRNA)
RNA: AACACUCUGGGAGUGAUGUUCUCAAAUAACCGAGGACCGGUACGGCCGCCACUCGGAAAAGAGUGAGUCCUACGAAAAGUAGGAC
  Kd: > 3000 nM

B9: Eterna 7688897 (Exclusion - Tryptophan B) (ssRNA)
RNA: ACGAUCAUGUCGGCCGCCACUGAGAGUAGUGAUGUUACUUUUAUGUUUUAGUUAUAAUAUUUGAACAGGACCGGGACAUGUUCGU
  Kd: > 3000 nM

B10: Eterna 7728774 (Exclusion - Theophylline A) (ssRNA)
RNA: AUCACAGUGAUGUUGUGAUAUGAUUCAGAUACCAGACUAGUGCUAGUCCCUUGGCAGCUGAACUCAGCAGCACCACUAGCACUCU
  Kd: > 3000 nM

B11: Eterna 7697880 (Same State - Tryptophan B) (ssRNA)
RNA: AACAGCAAUGCGGCCGCCACUUCGAGGUCAGUGAUGUUGACAGAAUUAAAUAAAGAUCCCAAGAGGAGGACCGGGCAGUGCUGUU
  Kd: > 3000 nM

B12: Eterna 7689816 (Same State - Arginine A) (ssRNA)
RNA: GCGAACAUUCGCAGUGAUGUUGCGACGGAAGGAGCGCGUGAAAACGCAGGUAGGUCGCCGACAUACUUAAUUUUACAGUGUUCGC
  Kd: > 3000 nM

B13: Eterna 7748347 (Exclusion - Theophylline B) (ssRNA)
RNA: UUUUAGGUAUCUGAUACCAGAGAAAAUAUAUGUAGUGAUGUUAUAUACAAAAUAAUUAAGCUCCCUUGGCAGCAGUUUUAAUUUU
  Kd: > 3000 nM

B14: Eterna 1103 (Exclusion - Theophylline A) (ssRNA)
RNA: AGUGACGAGUGAUGUUCGUGAACACUGGAUACCAGCAGUCUUAUCUGCCCUUGGCAGCCAACGGGAACCGAAUGUUAAGACCUGU
  Kd: > 3000 nM

B15: Eterna 7708488 (Same State - Arginine A) (ssRNA)
RNA: UAUACGAAGCAGUGAUGUUGCUUAUGAGAAGGAGCGCACGAAAGUGCAGGUAGGUCGCUCAGCCAUGUGGACGAAAACGUCCACA
  Kd: > 3000 nM

B16: Eterna 7653720 (Same State - Theophylline B) (ssRNA)
RNA: UGUAUGUGAUUUGAUACCAGACCAGCUGGUGGUACCUGAGGAACACCCAGGUAGGUUUGGGUCCCUUGGCAGCAAAUCGCAUACU
  Kd: 35.5 nM

B17: Eterna 6388885 (Inverted Exclusion NG 1) (ssRNA)
RNA: UUAUUUUUACAGAAGGUUUAAUAAUAUGUAUGAGAAGGAUAUGUAACAUGAGGAUCACCCAUGUUUUAUUUAUAUGAGGAUCAU
  Kd: 10.7 nM

B18: Eterna 7612252 (Exclusion - Arginine B) (ssRNA)
RNA: ACGUAAUGCAGAAGGAGCGUCUGAUUUUAACAUGAGGAUCACCCAUGUAAUAUUUAUGGUAGACAGGUAGGUCGCUGAAGUACGA
  Kd: 15.4 nM

B19: Eterna 6433253 (Small Loop Same State NG 3) (ssRNA)
RNA: CGUUUAUAUAUGGGUUUAUAUUAUGAGGAUAUCAAUAUUUAAUACAUGAGGAUCACCCAUGUUACUGAGAAGGCAUAAUUAACG
  Kd: 12.1 nM

B20: Eterna 5987116 (Exclusion 5) (ssRNA)
RNA: UUAGGAUCAGGAUAUGAUGUUUUAAACAUGAGGAUCACCCAUGUAGAUCCUGAUUCAACAUCAGAAGGGAUAAUUU
  Kd: 15.1 nM

B21: Eterna 7619949 (Exclusion - Theophylline A) (ssRNA)
RNA: CGCAACCCUAAGGGAUUGUGGUUAUUAGAUACCAGUAUGAUGCAAUACCCUUGGCAGCUAAUACAUGAGGAUCACCCAUGUUGCG
  Kd: 13.8 nM

B22: Eterna 6391458 (Small Loop Exclusion NG 1) (ssRNA)
RNA: ACAUGUUUUGUAGGAUAUCACUAGUUGUGUUAUAUAUUUGUUAUAAUGUAUUGAGAAGGACAUUUACAUGAGGAUCACCCAUGU
  Kd: 8.7 nM

B23: Eterna 11304 (Exclusion 2) (ssRNA)
RNA: UCGGCGCGAGGAUAUACGGUUGCUUGGUAGGGUCGUGGCGUACAUGAGGAUCACCCAUGUAGAAGGCGCGCCGC
  Kd: 17.3 nM

B24: Eterna 7641374 (Exclusion - Arginine A) (ssRNA)
RNA: GACAUGAGGAUCACCCAUGUUUUCUAUGAAGGAGCGUCGGAAAUGACAGGUAGGUCGCAUGGUAGGACUUGUAUCUUGUAUGUAG
  Kd: 14.5 nM

B25: Eterna 6056021 (Exclusion 3) (ssRNA)
RNA: GGGCCCGGAGGAUAUACAUGAGGAUCACCCAUGUAGGGCCCGGGUAUUCCCGGGUUUUGUAGAAGGCCGGGCCC
  Kd: 15 nM

B26: Eterna 7625640 (Exclusion - Theophylline B) (ssRNA)
RNA: UAUAUUGUGAUGGAUACCAGCAGAGAAAACGUUUAUCCUAACAUGAGGAUCACCCAUGUAUGCCCUUGGCAGCUGUUGUGGUAUA
  Kd: 44.2 nM

B27: Eterna 6122884 (Exclusion NG 3) (ssRNA)
RNA: CGAUAACAUAGUUAUCCGUAACGGACAUGAGGAUCACCCAUGUAGGAUAUGUUACUAAACUAGUAACAGAAGGACAUGAGUCUU
  Kd: 37.2 nM

B28: Eterna 7616965 (Same State - Arginine A) (ssRNA)
RNA: UACAUGAGGAUCACCCAUGUAUGUAUCGAAGGAGCGCGUGUAAACGCAGGUAGGUCGCGAACAUGAGGAUCACACAUGAGGAUCA
  Kd: 24.5 nM

B29: Eterna 6445724 (Inverted Small Loop Same State NG 1) (ssRNA)
RNA: AACCUAAAACAGAAGGCCAGCUACAUGAGGAUCACCCAUGUCGAAUCAUGGAGGAUAUGUUGUAAUUUACUCGCAGAUGAGUGC
  Kd: 35.5 nM

B30: Eterna 5859795 (Exclusion NG 3) (ssRNA)
RNA: ACAUGAGGAUCACCCAUGUAAUGAAGGGUACUAUACUAAACGUAGGAUAUCGAUGUAAGAUUGUACGAGAAGGACGAUUGCCUU
  Kd: 45.5 nM

B31: Eterna 10350 (Sensor for hsa-mir-208a) (ssRNA)
RNA: GCCCAUAGUAUAUGGAUACAAGCUUUUUGACAUGAGGAUCACCCAUGUACUCGUCUUAUGUGCAGUCCGUAGACUGC
  Kd: 27.2 nM

B32: Eterna 6113948 (Same State NG 3) (ssRNA)
RNA: UGUUGUGAACAGAACAUGAGGAUCACCCAUGUGCACUCGUGUAAGGAUAUACAAUCGUAUGGAAAGUAGAAGGUACUAAUUAUG
  Kd: 133 nM

B33: Eterna 15548 (Exclusion 2) (ssRNA)
RNA: GUGUAGAUAGGAUAUGCUUUGAGCUUAUGAGAGUAUGCUCGACAUGAGGAUCACCCAUGUAGAAGGGUUUACAC
  Kd: 88.3 nM

B34: Eterna 5860431 (Same State NG 1) (ssRNA)
RNA: UAAUGUUAGCGAGGAUAUCGUUUAUUGAAGUUACGAGAAGGCGCUCUUCUUACAUGAGGAUCACCCAUGUCUGUUUUGCAUGAU
  Kd: 68.7 nM

B35: Eterna 6444393 (Inverted Same State NG 3) (ssRNA)
RNA: UGUUUUGUACAUGAGGAUCACCCAUGUUAAUAUGUGGUAGUCAGAAGGCAUUGUUUGAGAUAUUAUGAGGAUAUGAUUAGUCUG
  Kd: 60.6 nM

B36: Eterna 6124659 (Same State NG 3) (ssRNA)
RNA: GAAUAUUCGUUGAACAUGAGGAUCACCCAUGUAACUUGACAUGAGGAUAUGGAUUCUAAUUGGAUCCAGAAGGUAUGAAUAUUC
  Kd: 75.8 nM

B37: Eterna 6436678 (Exclusion NG 2) (ssRNA)
RNA: AAAUUAAGAAGAGGAUAUUGACAUGAGGAUCACCCAUGUAUUUGGGAGUGUUUACUGAAUUCUUACGAGAAGGCUUACGAACUU
  Kd: 223 nM

B38: Eterna 13817 (Sensor v3, turn-off variant 2) (ssRNA)
RNA: UGUACUAUGCGUGCUGACAUGCGUAGUGCAGCAGGUGUAACAUGAGGAUCACCCAUGUCCUCAUUUGCUCGUCUUAA
  Kd: 386 nM

B39: Eterna 5982822 (Brourd's mod of Exclusion 4) (ssRNA)
RNA: GGAUCGAAUGUGAGGAUAUGCUGGUCCUUGGAUCAGCAGAAGGCACAUGAGGAUCACCCAUGUGGUAACGGUCC
  Kd: 233 nM

B40: Eterna 12785 (Exclusion 4) (ssRNA)
RNA: CUCGUGUGAGGAUAUCUAUUCCACGGACGGGAGUCUUGAAGAGAGAAGGCACAUGAGGAUCACCCAUGUAAUAA
  Kd: 166 nM

B41: Eterna 7666983 (Same State - Theophylline A) (ssRNA)
RNA: AAUAACAUGAGGAUCACCCAUGUAAAAGAUACCAGGGUGAUGAUCCUCCCUUGGCAGCUUACAGCUGAUCAAUAAGAUCGGCUGA
  Kd: 192 nM

B42: Eterna 6036671 (Sensor, turn-off variant 1) (ssRNA)
RNA: GUCCUGGAUUAUCACAAGCACAUGAGGAUCACCCAUGUCAUGGGUGGAUCCCUAAAUGGGUAUUCUGCUCGUCUUAU
  Kd: 481 nM
